Measurements reported in the supplement of paper PMC9170038.

system: MS2 coat protein; experiment: apparent KD of MS2 coat protein, switch OFF state (with FMN for OFF switches, without FMN for ON switches); designed switch direction (-1 OFF switch, 1 ON switch): 1; higher = weaker reporter binding; settings: FMN input: 0 or 200 uM; Eterna round: R93 (includes R88 designs)
Outline: (§1)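 Titration buffer: 100 mM Tris-HCl pH 7.5, 80 mM KCl, 4 mM MgCl2, without or with constant ligand. Designed RNA switches transcribed on-chip from Illumina sequencing clusters received SNAP-549-labelled MS2 coat protein in twofold steps from 0.7 or 1.5 nM to 3 µM. Apparent KD is the median per design of fits to normalised cluster binding curves.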

**Q.** “AUAAUAAUAAGGUAGGAUAUACUAAAGUAAACAUGAGGAUCACCCAUGUAAAGAAAAAAACUCAUGUAGAAGGGCCAGAAAUAAA [moonwalk 3]” was tested. Which “apparent KD of MS2 coat protein” value did it give?
**A.** The value was 62.3 nM.

**Q.** “UGUCUACCUGAUGAGGAUAUCCCACAGGCGACAUGAGGAUCACCCAUGUAAAGUAAGCGUAGGCGGGAGAAGGCAUGGCGGAGAC [Larearre]” was tested. Which “apparent KD of MS2 coat protein” value did it give?
**A.** The value was 30.7 nM.

**Q.** How did the “apparent KD of MS2 coat protein” value turn out when “AGGAAACAUGAGGAUCACCCAUGUAAAAAUAUGGGAGGAUAUACAAACAGGAAAGUGAGAGUAGAAGGCCUAAAAG [Garnet 19]” was run?
**A.** Its value is 231 nM.

**Q.** With “GAAAAGAAAACACAGGAUAUCCAAAAGAAAACAUGAGGAUCACCCAUGUAAAGAAAAUAAAAAUGGGAGAAGGGUGAAAGAAAGA [Mat - Same State 2 - JL mod - D42]” as the sequence, how does the “apparent KD of MS2 coat protein” value read?
**A.** Its value is 53.6 nM.

**Q.** With “AUAAUACAUGAGGAUCACCCAUGUCAAGGCUAUCAAGGAUAUAGACAACGUAGCGGUUGACUAGAAGGUGAGAAAU [Onxeanis]” as the sequence, how does the “apparent KD of MS2 coat protein” value read?
**A.** The value was 78.8 nM.

**Q.** With “AAAAGACAUGAGGAUCACCCAUGUGAAAACGUAGGAGGAUAUGUCUGGAAAACAGACUGGACAGAAGGCCUGUGUC [SS1 - 33]” as the sequence, how does the “apparent KD of MS2 coat protein” value read?
**A.** The value was 36 nM.

**Q.** Which “apparent KD of MS2 coat protein” value does the source give for “AUGAAAGUAACACAGGAUAUCGAGGAUACAACAUGAGGAUCACCCAUGUACAUACGAACGUAUAACGAGAAGGGUGGAUGAUCUUC [ss2]” here?
**A.** The value was 62.8 nM.

**Q.** How did the “apparent KD of MS2 coat protein” value turn out when “AAGAAACAUGAGGAUCACCCAUGUGAUAAUAUGGGAGGAUAUACAAAGACGAAAGACGAAGUAGAAGGCCUAUGAA [Garnet 44]” was run?
**A.** The value was 124 nM.

**Q.** How did the “apparent KD of MS2 coat protein” value turn out when “AAAUAAAUGACUGAGGAUAUAUCGAUGAGUACAUGAGGAUCACCCAUGUGAUAAUAAAAAGGGUGGUAGAAGGUAGUCAACAAAC [Mod 14 of Pariah 4 by Hyphema in Round 1]” was run?
**A.** The value was 150 nM.

**Q.** With “AUAAAUAAAAGUGAGGAUAUCCAAAAAAAAACAUGAGGAUCACCCAUGUAAAAGAAAAUAAAAUGGGAGAAGGCACAAAAUAAAU [SS2 M 10]” as the sequence, how does the “apparent KD of MS2 coat protein” value read?
**A.** The value was 26.2 nM.

**Q.** For “UGAAGACAUGAGGAUCACCCAUGUGGGAAUAUGGGAGGAUAUACAAAGACGAGAGUCAGAGUAGAAGGCCUAGGAA [salish99-ss1-95]”, which “apparent KD of MS2 coat protein” value is on record?
**A.** Its value is 114 nM.

system: MS2 coat protein; experiment: apparent KD of MS2 coat protein, switch ON state; designed switch direction (-1 OFF switch, 1 ON switch): 1; higher = weaker reporter binding; settings: FMN input: 0 or 200 uM; Eterna round: R93 (includes R88 designs)
Outline: as §1

**Q.** Which “apparent KD of MS2 coat protein” value does the source give for “AUAAUAAUAAGGUAGGAUAUACUAAAGUAAACAUGAGGAUCACCCAUGUAAAGAAAAAAACUCAUGUAGAAGGGCCAGAAAUAAA [moonwalk 3]” here?
**A.** The value was 53.2 nM.

**Q.** “UGUCUACCUGAUGAGGAUAUCCCACAGGCGACAUGAGGAUCACCCAUGUAAAGUAAGCGUAGGCGGGAGAAGGCAUGGCGGAGAC [Larearre]” was tested. Which “apparent KD of MS2 coat protein” value did it give?
**A.** Its value is 14.5 nM.

**Q.** Which “apparent KD of MS2 coat protein” value does the source give for “AGGAAACAUGAGGAUCACCCAUGUAAAAAUAUGGGAGGAUAUACAAACAGGAAAGUGAGAGUAGAAGGCCUAAAAG [Garnet 19]” here?
**A.** Its value is 42.4 nM.

**Q.** With “GAAAAGAAAACACAGGAUAUCCAAAAGAAAACAUGAGGAUCACCCAUGUAAAGAAAAUAAAAAUGGGAGAAGGGUGAAAGAAAGA [Mat - Same State 2 - JL mod - D42]” as the sequence, how does the “apparent KD of MS2 coat protein” value read?
**A.** The value was 20.9 nM.

**Q.** For “AUAAUACAUGAGGAUCACCCAUGUCAAGGCUAUCAAGGAUAUAGACAACGUAGCGGUUGACUAGAAGGUGAGAAAU [Onxeanis]”, which “apparent KD of MS2 coat protein” value is on record?
**A.** The value was 124 nM.

**Q.** “AAAAGACAUGAGGAUCACCCAUGUGAAAACGUAGGAGGAUAUGUCUGGAAAACAGACUGGACAGAAGGCCUGUGUC [SS1 - 33]” was tested. Which “apparent KD of MS2 coat protein” value did it give?
**A.** Its value is 24.4 nM.

**Q.** Which “apparent KD of MS2 coat protein” value does the source give for “AUGAAAGUAACACAGGAUAUCGAGGAUACAACAUGAGGAUCACCCAUGUACAUACGAACGUAUAACGAGAAGGGUGGAUGAUCUUC [ss2]” here?
**A.** Its value is 140 nM.

**Q.** Which “apparent KD of MS2 coat protein” value does the source give for “AAGAAACAUGAGGAUCACCCAUGUGAUAAUAUGGGAGGAUAUACAAAGACGAAAGACGAAGUAGAAGGCCUAUGAA [Garnet 44]” here?
**A.** Its value is 49 nM.

**Q.** “AAAUAAAUGACUGAGGAUAUAUCGAUGAGUACAUGAGGAUCACCCAUGUGAUAAUAAAAAGGGUGGUAGAAGGUAGUCAACAAAC [Mod 14 of Pariah 4 by Hyphema in Round 1]” was tested. Which “apparent KD of MS2 coat protein” value did it give?
**A.** The value was 185 nM.

**Q.** Which “apparent KD of MS2 coat protein” value does the source give for “AUAAAUAAAAGUGAGGAUAUCCAAAAAAAAACAUGAGGAUCACCCAUGUAAAAGAAAAUAAAAUGGGAGAAGGCACAAAAUAAAU [SS2 M 10]” here?
**A.** Its value is 11.9 nM.

**Q.** For “UGAAGACAUGAGGAUCACCCAUGUGGGAAUAUGGGAGGAUAUACAAAGACGAGAGUCAGAGUAGAAGGCCUAGGAA [salish99-ss1-95]”, which “apparent KD of MS2 coat protein” value is on record?
**A.** The value was 28.5 nM.

system: MS2 coat protein; experiment: apparent KD of MS2 coat protein, switch OFF state (with FMN for OFF switches, without FMN for ON switches); designed switch direction (-1 OFF switch, 1 ON switch): -1; higher = weaker reporter binding; settings: FMN input: 0 or 200 uM; Eterna round: R93 (includes R88 designs)
Outline: as §1

**Q.** Which “apparent KD of MS2 coat protein” value does the source give for “AAGAAACAUGAGGAUCACCCAUGUCAGGAUAUCGAAGAAAGAAAGAAAGAAAGAAGAACGAGAAGGGACAAAGG [Gaius Iulius Aquila]” here?
**A.** Its value is 60.4 nM.

**Q.** “AAGAACGGAGGAUAUACAUGAGGAUCACCCAUGUAAAAGAAAGAAAAGGGAAAGAAAAGUAGAAGGCCGAAGAA [Djeserkare Amenhotep I]” was tested. Which “apparent KD of MS2 coat protein” value did it give?
**A.** The value was 51.3 nM.

**Q.** With “AAGAACAGAGGAUAUACAUGAGGAUCACCCAUGUAAAAGAAAGAGGGAAAAGAGAAAAGUAGAAGGCUGAAGAA [Arsinoe III]” as the sequence, how does the “apparent KD of MS2 coat protein” value read?
**A.** Its value is 31 nM.

**Q.** “AAAUGCUGAGGAUAUACAUGAGGAUCACCCAUGUAAAAUAAAUAAAGGGUGUAAACGUGUAGAAGGCAGCAUAA [Exclusion 3.14e (FMN+ favored )]” was tested. Which “apparent KD of MS2 coat protein” value did it give?
**A.** Its value is 32.6 nM.

**Q.** With “ACCUGACAUGAGGAUCACCCAUGUCAGGAUAUGACUUCGAAAAUAAAAUAAAACGAUGUCAGAAGGGACAUGGG [Design 71: Sub-opt PB]” as the sequence, how does the “apparent KD of MS2 coat protein” value read?
**A.** Its value is 15.3 nM.

**Q.** How did the “apparent KD of MS2 coat protein” value turn out when “AAGAAGUGAGGAUAUCGAAGACUGUCGAAAAGACAGUCGAACGAGAAGGCACAUGAGGAUCACCCAUGUGAGGG [Marsurpial 65% 3]” was run?
**A.** The value was 69.9 nM.

**Q.** For “AAAAGUACAGGAUAUACAUGAGGAUCACCCAUGUAGAAAGGAAGUGUAAAAAAAAAGUGUAGAAGGGUGCAUGA [MS2 Riboswitches On Chip Exclusion 3 wbt1]”, which “apparent KD of MS2 coat protein” value is on record?
**A.** Its value is 21.2 nM.

**Q.** “AGGGAGUGAGGAUAUGCGAAAGAAAAAGAAGGAAAAAAAAAGCAGAAGGUACAUGAGGAUCACCCAUGUAAAAA [milkweed 7]” was tested. Which “apparent KD of MS2 coat protein” value did it give?
**A.** Its value is 16.9 nM.

**Q.** “AGCAAGAGAGGAUAUACAUAAAAAAAAAAAGUCUGAUCCCUACAUGAGGAUCACCCAUGUAGAAGGCUCUGGCA [Ex2 Design 156: Sub-opt 20]” was tested. Which “apparent KD of MS2 coat protein” value did it give?
**A.** The value was 26.2 nM.

**Q.** Which “apparent KD of MS2 coat protein” value does the source give for “AAAAAGUCAGGAUAUCGGAAAAUAAAAAUAAAAAAAAAAAACGAGAAGGGACAUGAGGAUCACCCAUGUAUGAC [Mat - Exclusion 4 - Mayanna - D113]” here?
**A.** The value was 39 nM.

**Q.** With “AAAGGACGAGGAUAUACAUGAGGAUCACCCAUGUAAAAAACAUAGUAAAAGGGCUUGUGUAGAAGGCGUCCAAA [Meechl Ex3 2 R2 v10]” as the sequence, how does the “apparent KD of MS2 coat protein” value read?
**A.** Its value is 35.6 nM.

**Q.** How did the “apparent KD of MS2 coat protein” value turn out when “AAGAAGUCAGGAUAUCGAAAAGAAAAGAAAAGAAAAGAAAACGAGAAGGGACAUGAGGAUCACCCAUGUAAGAA [Smerdis]” was run?
**A.** Its value is 25.7 nM.

**Q.** Which “apparent KD of MS2 coat protein” value does the source give for “AUAAAGUGAGGAUAUGCUAAGAAGUAAAUAGACAAAUAAAUGCAGAAGGCACAUGAGGAUCACCCAUGUAAGAA [Ex 4 Tesla 4]” here?
**A.** Its value is 26.2 nM.

**Q.** With “AAAGGACUAGGAUAUACAUGAGGAUCACCCAUGUAAAAAACAUAAUAAAAGAACUUAUGUAGAAGGAGUCCAAA [69%, Moding Meechl, 9]” as the sequence, how does the “apparent KD of MS2 coat protein” value read?
**A.** The value was 93.7 nM.

**Q.** Which “apparent KD of MS2 coat protein” value does the source give for “AACAUGUCAGGAUAUAAAAGAAAAGAAAAGAAAGAAAAGAAUUAGAAGGGACAUGAGGAUCACCCAUGUAAGAA [EteRNA is fun!]” here?
**A.** The value was 28.9 nM.

**Q.** Which “apparent KD of MS2 coat protein” value does the source give for “AAAACACAUGAGGAUCACCCAUGUUAGGAUAUCCACGCUACUAAUCCUAAACAAAGCGGGAGAAGGAACGUGGC [Xerereonan]” here?
**A.** The value was 17.5 nM.

**Q.** How did the “apparent KD of MS2 coat protein” value turn out when “UACGUAUGAGGAUAUACAAACAGAAAAAUCAGACAUAACAGACAUGAGGAUCACCCAUGUAGAAGGCAUAUACA [JR_Exc002_Sub903]” was run?
**A.** Its value is 15.3 nM.

**Q.** For “AAAAAGUCAGGAUAUGUCAAAGGUCACGAAAGUGACAAAGGACAGAAGGGACAUGAGGAUCACCCAUGUAAAAA [Fiskers Exclusion 4 D1]”, which “apparent KD of MS2 coat protein” value is on record?
**A.** Its value is 49.5 nM.

**Q.** “AGCUAGUCAGGAUAUACGCAAACGAACGAAGCAGUGAAGGGACAUGAGGAUCACCCAUGUAGAAGGGACUAGCA [Diamond 30]” was tested. Which “apparent KD of MS2 coat protein” value did it give?
**A.** The value was 75.5 nM.

**Q.** For “GCUUUGCAAGGAUAUACAUGAGGAUCACCCAUGUGAGAGAAAAAAGUGAGAAAGAAAAGUAGAAGGUGCGGAGG [salish99-ex3-120]”, which “apparent KD of MS2 coat protein” value is on record?
**A.** The value was 44 nM.

**Q.** “AAAAAGUGAGGAUAUGCAGUGGCCUGUAGACGCGAGCACUUGUAGAAGGCACAUGAGGAUCACCCAUGUUUAAA [EX4 Malc#29]” was tested. Which “apparent KD of MS2 coat protein” value did it give?
**A.** Its value is 20.5 nM.
